According to PMC2923024:

Tested on: hnRNP A1, P09651-2
Test: footprinting

GGAUGUUCUCUUCACUGUGGGAUGAGGUAGUAGGUUGUAUAGUUUUACCCUCACACCCACCACUGGGAGAUAACUAUACAAUCUACUGUCUUUCCUAACGUGAUAGAAAAGUCUGCA [pri-let-7a-1 GGG/CCC]
binding: no binding
